Assay [1] addresses the ribosome (40S + 60S subunits) (human (endogenous in HeLa)) (UniProt P62753). Put plainly: co-sedimentation; puromycin-treated crude ribosomal preparation resolved by sucrose-gradient centrifugation; ribosome fractions combined for western blot (Supplementary Fig. S1).
Assay [2] concerns the target 60S ribosomal subunit (human (endogenous in HeLa)) (UniProt P40429). Put plainly: co-sedimentation; ribosome fractions from HeLa cells, first and second 10-40% sucrose gradient, 20 mM Tris-HCl pH 7.5, 500 mM KCl, 4 mM magnesium acetate, 2 mM DTT, 4 °C; fractions and the purified subunits blotted for PABP, without GST-Paip2 treatment.
The target of assay [3] is 40S ribosomal subunit (human (endogenous in HeLa)) (UniProt P62753). The assay is described as above.

As for “poly(A)-binding protein (PABP), endogenous in HeLa ribosome preparations (from UniProt P11940 1-636) (natural protein)”, the molar ratio of PABP to the ribosome (40S + 60S subunits) (western blot) in assay [1] turned out to be 2. Further, the molar ratio of subunit to PABP in the purified subunit (western blot) in assay [2] and in assay [3] was 10 each time.

(Values after PMC6261967.)
